Assay results from the Human Domainome abundance scans (Beltran et al. 2025).
± gives the uncertainty stated by the source.

B1: Tumor protein 63, residues 545 to 610; numbered along this chain, Q9H3D4 (parent)
chain: TDCSIVSFLARLGCSSCLDYFTTQGLTTIYQIEHYSMDDLASLKIPEQFRHAIWKGILDHRQLHEF

Variants of: B1
Test: abundance fitness (aPCA) (normalised: wild type 0, dead -1); higher = more abundant; growth selection in yeast, the domain comes from the species named
Conditions: Homo sapiens

Compared with TDVSIVSFLARLGCSSCLDYFTTQGLTTIYQIEHYSMDDLASLKIPEQFRHAIWKGILDHRQLHEF [C3V], TDWSIVSFLARLGCSSCLDYFTTQGLTTIYQIEHYSMDDLASLKIPEQFRHAIWKGILDHRQLHEF [C3W] is higher in abundance fitness: -0.15 ± 0.021 for the first, -0.082 ± 0.02 for the second.

TDYSIVSFLARLGCSSCLDYFTTQGLTTIYQIEHYSMDDLASLKIPEQFRHAIWKGILDHRQLHEF [C3Y] and TDTSIVSFLARLGCSSCLDYFTTQGLTTIYQIEHYSMDDLASLKIPEQFRHAIWKGILDHRQLHEF [C3T] are within error of each other in abundance fitness: 0 ± 0.027 for the first, -0.015 ± 0.021 for the second.

First: TDCSIVGFLARLGCSSCLDYFTTQGLTTIYQIEHYSMDDLASLKIPEQFRHAIWKGILDHRQLHEF [S7G]
Second: TDCSIVWFLARLGCSSCLDYFTTQGLTTIYQIEHYSMDDLASLKIPEQFRHAIWKGILDHRQLHEF [S7W]
The abundance fitness of the first is higher: -0.045 ± 0.025 for the first, -0.132 ± 0.027 for the second.

Going from TDCSIVIFLARLGCSSCLDYFTTQGLTTIYQIEHYSMDDLASLKIPEQFRHAIWKGILDHRQLHEF [S7I] to TDCSIVMFLARLGCSSCLDYFTTQGLTTIYQIEHYSMDDLASLKIPEQFRHAIWKGILDHRQLHEF [S7M], the abundance fitness rises from -0.234 ± 0.064 to -0.108 ± 0.036.

Compared with TDCSIVPFLARLGCSSCLDYFTTQGLTTIYQIEHYSMDDLASLKIPEQFRHAIWKGILDHRQLHEF [S7P], TDCSIVTFLARLGCSSCLDYFTTQGLTTIYQIEHYSMDDLASLKIPEQFRHAIWKGILDHRQLHEF [S7T] is higher in abundance fitness: -0.113 ± 0.036 for the first, -0.012 ± 0.031 for the second.

First: TDCSIVNFLARLGCSSCLDYFTTQGLTTIYQIEHYSMDDLASLKIPEQFRHAIWKGILDHRQLHEF [S7N]
Second: TDCSIVRFLARLGCSSCLDYFTTQGLTTIYQIEHYSMDDLASLKIPEQFRHAIWKGILDHRQLHEF [S7R]
The abundance fitness of the first is higher: -0.006 ± 0.032 for the first, -0.086 ± 0.02 for the second.

First: TDCSIVLFLARLGCSSCLDYFTTQGLTTIYQIEHYSMDDLASLKIPEQFRHAIWKGILDHRQLHEF [S7L]
Second: TDCSIVEFLARLGCSSCLDYFTTQGLTTIYQIEHYSMDDLASLKIPEQFRHAIWKGILDHRQLHEF [S7E]
The abundance fitness of the first is lower: -0.137 ± 0.027 for the first, -0.024 ± 0.041 for the second.

TDCSIVYFLARLGCSSCLDYFTTQGLTTIYQIEHYSMDDLASLKIPEQFRHAIWKGILDHRQLHEF [S7Y] and TDCSIVKFLARLGCSSCLDYFTTQGLTTIYQIEHYSMDDLASLKIPEQFRHAIWKGILDHRQLHEF [S7K] are within error of each other in abundance fitness: -0.053 ± 0.041 for the first, -0.028 ± 0.031 for the second.

TDCSIVDFLARLGCSSCLDYFTTQGLTTIYQIEHYSMDDLASLKIPEQFRHAIWKGILDHRQLHEF [S7D] and TDCSIVHFLARLGCSSCLDYFTTQGLTTIYQIEHYSMDDLASLKIPEQFRHAIWKGILDHRQLHEF [S7H] are within error of each other in abundance fitness: -0.056 ± 0.047 for the first, -0.069 ± 0.03 for the second.

TDCSIVCFLARLGCSSCLDYFTTQGLTTIYQIEHYSMDDLASLKIPEQFRHAIWKGILDHRQLHEF [S7C] and TDCSIVQFLARLGCSSCLDYFTTQGLTTIYQIEHYSMDDLASLKIPEQFRHAIWKGILDHRQLHEF [S7Q] are within error of each other in abundance fitness: -0.026 ± 0.047 for the first, -0.067 ± 0.031 for the second.

TDCSIVFFLARLGCSSCLDYFTTQGLTTIYQIEHYSMDDLASLKIPEQFRHAIWKGILDHRQLHEF [S7F] and TDCSIRSFLARLGCSSCLDYFTTQGLTTIYQIEHYSMDDLASLKIPEQFRHAIWKGILDHRQLHEF [V6R] are within error of each other in abundance fitness: -0.082 ± 0.042 for the first, -0.012 ± 0.028 for the second.

Compared with TDCSIASFLARLGCSSCLDYFTTQGLTTIYQIEHYSMDDLASLKIPEQFRHAIWKGILDHRQLHEF [V6A], TDCSIFSFLARLGCSSCLDYFTTQGLTTIYQIEHYSMDDLASLKIPEQFRHAIWKGILDHRQLHEF [V6F] is lower in abundance fitness: 0.028 ± 0.025 for the first, -0.06 ± 0.036 for the second.

Going from TDCSIPSFLARLGCSSCLDYFTTQGLTTIYQIEHYSMDDLASLKIPEQFRHAIWKGILDHRQLHEF [V6P] to TDCSIDSFLARLGCSSCLDYFTTQGLTTIYQIEHYSMDDLASLKIPEQFRHAIWKGILDHRQLHEF [V6D], the abundance fitness rises from -0.077 ± 0.026 to -0.013 ± 0.035.

TDCSITSFLARLGCSSCLDYFTTQGLTTIYQIEHYSMDDLASLKIPEQFRHAIWKGILDHRQLHEF [V6T] and TDCSISSFLARLGCSSCLDYFTTQGLTTIYQIEHYSMDDLASLKIPEQFRHAIWKGILDHRQLHEF [V6S] are within error of each other in abundance fitness: 0.016 ± 0.035 for the first, 0.003 ± 0.026 for the second.

First: TDCSIKSFLARLGCSSCLDYFTTQGLTTIYQIEHYSMDDLASLKIPEQFRHAIWKGILDHRQLHEF [V6K]
Second: TDCSIWSFLARLGCSSCLDYFTTQGLTTIYQIEHYSMDDLASLKIPEQFRHAIWKGILDHRQLHEF [V6W]
The abundance fitness of the first is higher: 0.009 ± 0.032 for the first, -0.073 ± 0.027 for the second.

Going from TDCSILSFLARLGCSSCLDYFTTQGLTTIYQIEHYSMDDLASLKIPEQFRHAIWKGILDHRQLHEF [V6L] to TDCSIYSFLARLGCSSCLDYFTTQGLTTIYQIEHYSMDDLASLKIPEQFRHAIWKGILDHRQLHEF [V6Y], the abundance fitness falls from -0.007 ± 0.029 to -0.11 ± 0.036.

Going from TDCSINSFLARLGCSSCLDYFTTQGLTTIYQIEHYSMDDLASLKIPEQFRHAIWKGILDHRQLHEF [V6N] to TDCSICSFLARLGCSSCLDYFTTQGLTTIYQIEHYSMDDLASLKIPEQFRHAIWKGILDHRQLHEF [V6C], the abundance fitness falls from -0.031 ± 0.028 to -0.111 ± 0.035.

TDCSIGSFLARLGCSSCLDYFTTQGLTTIYQIEHYSMDDLASLKIPEQFRHAIWKGILDHRQLHEF [V6G] and TDCSIMSFLARLGCSSCLDYFTTQGLTTIYQIEHYSMDDLASLKIPEQFRHAIWKGILDHRQLHEF [V6M] are within error of each other in abundance fitness: -0.032 ± 0.024 for the first, -0.017 ± 0.027 for the second.

TDCSIISFLARLGCSSCLDYFTTQGLTTIYQIEHYSMDDLASLKIPEQFRHAIWKGILDHRQLHEF [V6I] and TDCSIESFLARLGCSSCLDYFTTQGLTTIYQIEHYSMDDLASLKIPEQFRHAIWKGILDHRQLHEF [V6E] are within error of each other in abundance fitness: -0.034 ± 0.032 for the first, -0.067 ± 0.045 for the second.

Going from TDCLIVSFLARLGCSSCLDYFTTQGLTTIYQIEHYSMDDLASLKIPEQFRHAIWKGILDHRQLHEF [S4L] to TDCWIVSFLARLGCSSCLDYFTTQGLTTIYQIEHYSMDDLASLKIPEQFRHAIWKGILDHRQLHEF [S4W], the abundance fitness falls from -0.038 ± 0.017 to -0.224 ± 0.028.

In the case of TDCPIVSFLARLGCSSCLDYFTTQGLTTIYQIEHYSMDDLASLKIPEQFRHAIWKGILDHRQLHEF [S4P], the abundance fitness is reported as -0.17 ± 0.026.
